Positions count from the first letter of the chain named. In names and notes the source's numbering stands.
What was measured:
Assay in all cases: cell-based or functional assay
[1] = target: T1, human PD-1 overexpressed on HEK-Blue reporter cells (human, UniProt Q15116 25-288)
[2] = target: T2, human IL-2 receptor (human, UniProt P01589 22-272; P14784 27-551; P31785 23-369)
T2 sequence (looked up) 1: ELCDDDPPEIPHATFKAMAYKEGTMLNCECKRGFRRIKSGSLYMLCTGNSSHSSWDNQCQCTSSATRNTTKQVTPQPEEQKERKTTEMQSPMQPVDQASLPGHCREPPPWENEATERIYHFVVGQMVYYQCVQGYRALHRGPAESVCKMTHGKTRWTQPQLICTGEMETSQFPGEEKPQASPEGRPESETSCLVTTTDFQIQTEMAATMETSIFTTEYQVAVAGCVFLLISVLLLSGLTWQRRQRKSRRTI
T2 sequence (looked up) 2: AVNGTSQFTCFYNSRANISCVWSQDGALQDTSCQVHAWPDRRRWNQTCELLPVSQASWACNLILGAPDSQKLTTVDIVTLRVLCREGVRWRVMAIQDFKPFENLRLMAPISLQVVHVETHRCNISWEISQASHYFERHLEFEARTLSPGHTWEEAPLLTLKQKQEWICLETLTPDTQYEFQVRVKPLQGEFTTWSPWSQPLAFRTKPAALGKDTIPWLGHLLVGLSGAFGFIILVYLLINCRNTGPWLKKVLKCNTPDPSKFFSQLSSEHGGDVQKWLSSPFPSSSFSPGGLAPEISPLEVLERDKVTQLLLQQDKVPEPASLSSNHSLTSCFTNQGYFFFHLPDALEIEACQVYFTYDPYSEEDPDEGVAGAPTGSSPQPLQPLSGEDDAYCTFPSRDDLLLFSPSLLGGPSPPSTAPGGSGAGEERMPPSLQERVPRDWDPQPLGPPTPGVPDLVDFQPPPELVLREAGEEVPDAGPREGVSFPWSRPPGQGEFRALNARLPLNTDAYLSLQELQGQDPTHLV
T2 sequence (looked up) 3: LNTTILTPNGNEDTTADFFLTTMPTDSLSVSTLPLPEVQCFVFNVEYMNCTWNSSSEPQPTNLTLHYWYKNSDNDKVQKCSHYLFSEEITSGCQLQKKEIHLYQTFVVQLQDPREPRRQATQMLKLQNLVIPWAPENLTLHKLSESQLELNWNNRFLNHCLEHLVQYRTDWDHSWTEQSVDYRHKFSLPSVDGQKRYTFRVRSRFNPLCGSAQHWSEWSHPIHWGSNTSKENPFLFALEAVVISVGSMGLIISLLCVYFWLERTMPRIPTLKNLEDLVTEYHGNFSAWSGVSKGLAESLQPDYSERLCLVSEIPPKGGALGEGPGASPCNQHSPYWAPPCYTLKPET

[3] = target: T1, human PD-1 overexpressed on HEK-Blue …; remark: listed apart in the source
[4] = target: T2, human IL-2 receptor; remark: listed apart in the source
[5] = target: human IL-12 receptor complex (human, UniProt P42701 24-662; Q99665 24-862)
Chain of human IL-12 receptor complex (Q99665 24-862, chain 2 of 2, other chains not shown): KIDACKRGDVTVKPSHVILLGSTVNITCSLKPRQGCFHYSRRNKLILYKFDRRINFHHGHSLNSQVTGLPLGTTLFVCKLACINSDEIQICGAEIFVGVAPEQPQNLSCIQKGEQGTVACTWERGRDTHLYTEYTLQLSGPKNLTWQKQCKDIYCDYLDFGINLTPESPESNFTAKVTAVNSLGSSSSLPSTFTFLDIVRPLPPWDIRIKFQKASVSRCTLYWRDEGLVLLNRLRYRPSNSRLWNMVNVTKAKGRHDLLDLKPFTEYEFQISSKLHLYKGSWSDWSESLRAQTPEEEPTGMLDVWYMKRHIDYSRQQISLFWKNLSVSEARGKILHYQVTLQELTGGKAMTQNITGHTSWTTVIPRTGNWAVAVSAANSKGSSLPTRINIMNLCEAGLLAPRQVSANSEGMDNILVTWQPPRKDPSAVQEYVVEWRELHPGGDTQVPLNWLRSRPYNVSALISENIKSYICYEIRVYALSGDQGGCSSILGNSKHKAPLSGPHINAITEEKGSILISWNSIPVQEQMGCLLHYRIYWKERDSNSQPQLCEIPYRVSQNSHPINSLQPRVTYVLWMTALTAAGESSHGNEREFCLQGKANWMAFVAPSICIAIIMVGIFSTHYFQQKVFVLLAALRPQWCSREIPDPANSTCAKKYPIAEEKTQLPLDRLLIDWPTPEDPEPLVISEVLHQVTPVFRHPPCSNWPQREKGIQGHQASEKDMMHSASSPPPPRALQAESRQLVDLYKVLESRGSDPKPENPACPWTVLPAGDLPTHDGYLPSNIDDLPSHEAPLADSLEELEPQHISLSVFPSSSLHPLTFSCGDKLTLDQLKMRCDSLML

T1 sequence (Q15116 25-288): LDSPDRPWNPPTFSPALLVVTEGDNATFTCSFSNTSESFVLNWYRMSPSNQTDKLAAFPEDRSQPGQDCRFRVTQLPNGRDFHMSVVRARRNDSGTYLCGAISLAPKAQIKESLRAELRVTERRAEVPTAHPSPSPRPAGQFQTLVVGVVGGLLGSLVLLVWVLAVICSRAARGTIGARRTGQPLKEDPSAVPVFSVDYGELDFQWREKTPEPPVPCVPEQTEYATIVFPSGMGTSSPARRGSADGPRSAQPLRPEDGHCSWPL

B1: IL-2(L18R/Q22E/R38D/K43E/E61R/Q126T/S130R)/PD-L1(mut2)-Fc (Fc fusion)
chain 1: FTVTVPKDLYVVEYGSNMTIECKFPVEKQLDLAALQVYWMMEDKNIIQFVHGEEDLKVQHSSYRQRARLLKDQLSLGNAALQITDVKLQDAGVYTCLIAYKGADYKRITVKVNAPYNKINQRILVVDPVTSEHELTCQAEGYPKAEVIWTSSDHQVLSGKTTTTNSKREEKLFNVTSTLRINTTTNEIFYCTFRRLDPEENHTAELVIPELPLAHPPNERGGGSGAPTSSSTKKTQLQLEHLRLDLEMILNGINNYKNPKLTDMLTFEFYMPKKATELKHLQCLERELKPLEEVLNLAQSKNFHLRPRDLISNINVIVLELKGSETTFMCEYADETATIVEFLNRWITFCTSIIRTLTGGGGSGGGDKTHTCPPCPAPEKKGGPSVFLFPPKPKDTLMISRTPEVTCVVVDVSHEDPEVKFNWYVDGVEVHNAKTKPREEQYNSTYRVVSVLTVLHQDWLNGKEYKCKVSNKALPAPIEKTISKAKGQPREPQVYVLPPSREEMTKNQVSLLCLVKGFYPSDIAVEWESNGQPENRYMTWPPVLDSDGSFFLYSKLTVDKSRWQQGNVFSCSVMHEALHNHYTQKSLSLSPGK
chain 2: FTVTVPKDLYVVEYGSNMTIECKFPVEKQLDLAALQVYWMMEDKNIIQFVHGEEDLKVQHSSYRQRARLLKDQLSLGNAALQITDVKLQDAGVYTCLIAYKGADYKRITVKVNAPYNKINQRILVVDPVTSEHELTCQAEGYPKAEVIWTSSDHQVLSGKTTTTNSKREEKLFNVTSTLRINTTTNEIFYCTFRRLDPEENHTAELVIPELPLAHPPNERGGGGSGGGDKTHTCPPCPAPEDEGGPSVFLFPPKPKDTLMISRTPEVTCVVVDVSHEDPEVKFNWYVDGVEVHNAKTKPREEQYNSTYRVVSVLTVLHQDWLNGKEYKCKVSNKALPAPIEKTISKAKGQPREPQVYVYPPSREEMTKNQVSLTCLVKGFYPSDIAVEWESNGQPENNYKTTPPVLDEDGSFALVSKLTVDKSRWQQGNVFSCSVMHEALHNHYTQKSLSLSPGK
- IL-2 signal transduction, % of rIL2, HEK-IL-2-PD-1 cells [1]: < 0.1%
- IL-2 signal transduction, % of rIL2, HEK-IL-2 cells [2]: < 0.1%

B2: IL-2(L18R/Q22E/R38D/K43E/E61R)/IL-12(E59A/F60A)/PD-L1(mut2)-Fc (Fc fusion)
chain 1: FTVTVPKDLYVVEYGSNMTIECKFPVEKQLDLAALQVYWMMEDKNIIQFVHGEEDLKVQHSSYRQRARLLKDQLSLGNAALQITDVKLQDAGVYTCLIAYKGADYKRITVKVNAPYNKINQRILVVDPVTSEHELTCQAEGYPKAEVIWTSSDHQVLSGKTTTTNSKREEKLFNVTSTLRINTTTNEIFYCTFRRLDPEENHTAELVIPELPLAHPPNERGGGGSGGGIWELKKDVYVVELDWYPDAPGEMVVLTCDTPEEDGITWTLDQSSEVLGSGKTLTIQVKAAGDAGQYTCHKGGEVLSHSLLLLHKKEDGIWSTDILKDQKEPKNKTFLRCEAKNYSGRFTCWWLTTISTDLTFSVKSSRGSSDPQGVTCGAATLSAERVRGDNKEYEYSVECQEDSACPAAEESLPIEVMVDAVHKLKYENYTSSFFIRDIIKPDPPKNLQLKPLKNSRQVEVSWEYPDTWSTPHSYFSLTFCVQVQGKSKREKKDRVFTDKTSATVICRKNASISVRAQDRYYSSSWSEWASVPCSGGGGSGGGSGGGGSRNLPVATPDPGMFPCLHHSQNLLRAVSNMLQKARQTLEFYPCTSEEIDHEDITKDKTSTVEACLPLELTKNESCLNSRETSFITNGSCLASRKTSFMMALCLSSIYEDLKMYQVEFKTMNAKLLMDPKRQIFLDQNMLAVIDELMQALNFNSETVPQKSSLEEPDFYKTKIKLCILLHAFRIRAVTIDRVMSYLNASGGGGSGGGDKTHTCPPCPAPEDEGGPSVFLFPPKPKDTLMISRTPEVTCVVVDVSHEDPEVKFNWYVDGVEVHNAKTKPREEQYNSTYRVVSVLTVLHQDWLNGKEYKCKVSNKALPAPIEKTISKAKGQPREPQVYVYPPSREEMTKNQVSLTCLVKGFYPSDIAVEWESNGQPENNYKTTPPVLDEDGSFALVSKLTVDKSRWQQGNVFSCSVMHEALHNHYTQKSLSLSPGK
chain 2: B1 chain 1 with T351Q, R355S
- IL-2 signal transduction, % of rIL-2, HEK-IL-2-PD-1 cells [3]: 35%
- IL-12 signal transduction, % of rIL-12, HEK-IL-12-PD-1 cells [3]: 19%
- IL-2 signal transduction, % of rIL-2, HEK-IL-2 cells [4]: 4%
- IL-12 signal transduction, % of rIL-12, HEK-IL-12 cells [5]: < 0.2%

B3: IL-2(R38D/K43E/E61R/Q126T)/IL-12(E59A/F60A)/PD-L1(mut2)-Fc (Fc fusion)
chain 1: B2 chain 1
chain 2: B1 chain 1 with R243L, E247Q, R355S
- IL-2 signal transduction, % of rIL-2, HEK-IL-2-PD-1 cells [3]: 20%
- IL-12 signal transduction, % of rIL-12, HEK-IL-12-PD-1 cells [3]: 25%
- IL-2 signal transduction, % of rIL-2, HEK-IL-2 cells [4]: 2%
- IL-12 signal transduction, % of rIL-12, HEK-IL-12 cells [5]: < 0.2%

B4: IL-2(L18R/Q22E/R38D/K43E/E61R)/PD-L1(mut2)-Fc/IL-12(E59A/F60A) (Fc fusion)
chain 1: FTVTVPKDLYVVEYGSNMTIECKFPVEKQLDLAALQVYWMMEDKNIIQFVHGEEDLKVQHSSYRQRARLLKDQLSLGNAALQITDVKLQDAGVYTCLIAYKGADYKRITVKVNAPYNKINQRILVVDPVTSEHELTCQAEGYPKAEVIWTSSDHQVLSGKTTTTNSKREEKLFNVTSTLRINTTTNEIFYCTFRRLDPEENHTAELVIPELPLAHPPNERGGGGSGGGDKTHTCPPCPAPEDEGGPSVFLFPPKPKDTLMISRTPEVTCVVVDVSHEDPEVKFNWYVDGVEVHNAKTKPREEQYNSTYRVVSVLTVLHQDWLNGKEYKCKVSNKALPAPIEKTISKAKGQPREPQVYVYPPSREEMTKNQVSLTCLVKGFYPSDIAVEWESNGQPENNYKTTPPVLDEDGSFALVSKLTVDKSRWQQGNVFSCSVMHEALHNHYTQKSLSLSPGKGGGGSGGGIWELKKDVYVVELDWYPDAPGEMVVLTCDTPEEDGITWTLDQSSEVLGSGKTLTIQVKAAGDAGQYTCHKGGEVLSHSLLLLHKKEDGIWSTDILKDQKEPKNKTFLRCEAKNYSGRFTCWWLTTISTDLTFSVKSSRGSSDPQGVTCGAATLSAERVRGDNKEYEYSVECQEDSACPAAEESLPIEVMVDAVHKLKYENYTSSFFIRDIIKPDPPKNLQLKPLKNSRQVEVSWEYPDTWSTPHSYFSLTFCVQVQGKSKREKKDRVFTDKTSATVICRKNASISVRAQDRYYSSSWSEWASVPCSGGGGSGGGSGGGGSRNLPVATPDPGMFPCLHHSQNLLRAVSNMLQKARQTLEFYPCTSEEIDHEDITKDKTSTVEACLPLELTKNESCLNSRETSFITNGSCLASRKTSFMMALCLSSIYEDLKMYQVEFKTMNAKLLMDPKRQIFLDQNMLAVIDELMQALNFNSETVPQKSSLEEPDFYKTKIKLCILLHAFRIRAVTIDRVMSYLNAS
chain 2: B1 chain 1 with T351Q, R355S
- IL-2 signal transduction, % of rIL-2, HEK-IL-2-PD-1 cells [3]: 32%
- IL-12 signal transduction, % of rIL-12, HEK-IL-12-PD-1 cells [3]: 27%
- IL-2 signal transduction, % of rIL-2, HEK-IL-2 cells [4]: 3%
- IL-12 signal transduction, % of rIL-12, HEK-IL-12 cells [5]: 2%

B5: IL-2(R38D/K43E/E61R/Q126T)/PD-L1(mut2)-Fc/IL-12(E59A/F60A) (Fc fusion)
chain 1: B4 chain 1
chain 2: B1 chain 1 with R243L, E247Q, R355S
- IL-2 signal transduction, % of rIL-2, HEK-IL-2-PD-1 cells [3]: 31%
- IL-12 signal transduction, % of rIL-12, HEK-IL-12-PD-1 cells [3]: 30%
- IL-2 signal transduction, % of rIL-2, HEK-IL-2 cells [4]: 3%
- IL-12 signal transduction, % of rIL-12, HEK-IL-12 cells [5]: 1%
